Results reported in patent publication US20110274704A1.

Experiments:
[1] = biological target: CD20 on lymphoma and leukemia cell lines (human) (UniProt P11836); test: cell-based or functional assay
[2] = biological target: fusion protein containing the A3B3 domain of CEA (UniProt P06731); test: competitive ELISA on coated A3B3 fusion protein; competitor HRP-conjugated hMN-14 IgG (1 nM)

Sequence of CD20 on lymphoma and leukemia cell lines (human) (P11836 whole entry, the tested form may be a part): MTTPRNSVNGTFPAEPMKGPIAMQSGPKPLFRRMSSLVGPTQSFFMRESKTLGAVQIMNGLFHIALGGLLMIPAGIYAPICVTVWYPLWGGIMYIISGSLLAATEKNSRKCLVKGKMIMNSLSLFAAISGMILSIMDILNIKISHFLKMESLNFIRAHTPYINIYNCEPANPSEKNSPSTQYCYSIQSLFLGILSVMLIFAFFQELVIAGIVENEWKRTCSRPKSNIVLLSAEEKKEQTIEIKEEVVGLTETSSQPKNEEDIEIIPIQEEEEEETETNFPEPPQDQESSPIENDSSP

| fold of avidity against TF1 [2] | Substance | EC50, in vitro cytotoxicity, Daudi and Ramos cells [1] | EC50, in vitro cytotoxicity, Jeko-1 cells [1] |
| --- | --- | --- | --- |
| – | 20-Rap (antibody) | 0.1 nM | 20 µM |
| 2 fold | TF2 (bispecific antibody) | – | – |
